{
  "source": "patent US11643467B2",
  "about": "“Monoclonal antibody anti-FGFR4” (EXIRIS S.R.L., priority 2017, dated 2023)",
  "key": {"[1]": {"system": "FGFR4-dependent phosphorylation of FRS2", "assay": "Western blot of FGF19-induced FRS2/FGFR4 phosphorylation in HCC cells", "assay_type": "cell-based, human", "conditions": "Huh7; antibodies 100 or 200 ug/mL, BLU9931 0.1 uM or 1 uM; FIG. 21", "method": "FIG. 21. Inhibition of FGF19-dependent FGFR4 and FRS2 phosphorylation in Huh7 cells treated with the anti-FGFR4 chimeric antibodies analyzed by Western Blot. Cells were treated with 100 or 200 ug/mL of each antibody, with 0.1 uM or 1 uM BLU9931, or with PBS prior of the addition of FGF19/heparin under the experimental conditions described in the Example 8.\nFIG. 31. […] (A) Graph of the absorbance values at 450 nm obtained from a FGFR4-Fc-dependent solid phase binding assay, as a function of the concentration of ab41948. Serial 1:3 dilutions (10 experimental points from 0.00005 ug/mL to 1 ug/mL) were tested in triplicate on the extracellular regions of FGFR4 fused with human Fc. The continuous line is the experimental one while the dashed line is that obtained by fitting experimental data to the “one site binding” equation. […] Inhibition curves were derived by 4P logistic fitting of the experimental data with the KaleidaGraph software, based on the residual absorbance at 450 nm (% of PBS control) at increasing antibody concentrations (1:3 serial dilutions from 0.001 to 10 ug/mL). […]\nBLU9931 was included as positive control Ih before cell lysis at concentrations of […]. Total protein lysates in SDS were prepared and analyzed by Western Blot using an anti-phospho-FRS2 antibody (Tyrl96, Cell Signalling), an anti-FRS2 antibody (LSBio) and an anti-GAPDH antibody (Sigma-Aldrich). […]"}, "[2]": {"system": "FGFR4 signalling pathway (CYP7A1, CTGF mRNA)"}},
  "data": [
    {"molecule": "C=CC(=O)Nc1cccc(C)c1Nc1ncc2cc(-c3c(Cl)c(OC)cc(OC)c3Cl)ccc2n1", "note": "[BLU9931, reference compound]", "values": [
      {"measurement": "inhibition of FGF19-induced FGFR4 and FRS2 phosphorylation", "setting": "[1]", "result": "could inhibit FGF19-induced FGFR4 and FRS2 phosphorylation"}
    ]},
    {"molecule": "FGF19: recombinant FGF19 (Peprotech), FGFR4 ligand", "values": [
      {"measurement": "increase of CTGF expression", "setting": "[2]", "result": "about 2.5 fold"},
      {"measurement": "reduction of CYP7A1 expression", "setting": "[2]", "result": "about 5 fold"}
    ]}
  ]
}
